The values below come from the Immune Epitope Database (IEDB).

A value given as a limit tells only on which side of the number the result lay.

Among the targets are HLA-A*02:01; HLA-A*68:02; HLA-B*07:02; HLA-B*35:01; HLA-A*01:01; HLA-A*26:01; HLA-A*29:02; HLA-A*30:01; HLA-A*30:02; HLA-A*32:01; HLA-A*23:01; HLA-A*24:02; HLA-B*15:01; HLA-B*53:01; HLA-A*02:02; HLA-A*02:03; HLA-A*02:06.
Common to all, as to test: IEDB peptide-MHC binding, purified MHC/competitive/radioactivity; filed as Kd, often an IC50 or EC50 that approximates it; ≥ and ≤ were set here for values at or beyond the usual limits of such assays
Another test concerns the target HLA-B*51:01. The note with it: source organism: Dengue virus 2 Jamaica/1409/1983.
For the next test, the target named is HLA-B*08:01. The note with it: source organism: Dengue virus 1 Nauru/West Pac/1974.
Where [1] appears, read: source organism: Dengue virus 4 Philippines/H241/1956.
Setting [2] is: source organism: Lymphocytic choriomeningitis virus (strain Armstrong).
The mark [3] stands for this setting: source organism: Mammarenavirus juninense.
Setting [4] is: source organism: Vaccinia virus WR.
Setting [5] is: source organism: Dengue virus 2 Jamaica/1409/1983.
Where [6] appears, read: source organism: Trypanosoma cruzi.
[7] abbreviates: source organism: Dengue virus 3 Martinique/1243/1999.
[8] abbreviates: source organism: Hepacivirus hominis.
The mark [9] stands for this setting: source organism: Dengue virus 1 Brazil/97-11/1997.
Where [10] appears, read: source organism: Dengue virus 1 Nauru/West Pac/1974.
Setting [11] is: source organism: Mammarenavirus brazilense.
[12] abbreviates: source organism: Dengue virus 3 Sri Lanka/1266/2000.

The Kd is the constant that tells how readily two partners part at equilibrium. As for ALALEEKRRL, the Kd was 12200 nM with HLA-A*02:01 (source organism: Homo sapiens) and at least 63800 nM with HLA-A*68:02 (source organism: Homo sapiens).
Turning to APSTGSASSM, the Kd in the test with HLA-B*07:02 (setting [1]) was 19.3 nM; with HLA-B*35:01 (setting [1]), 377 nM.
With DSEEYHLLY, the Kd is 2.78 nM with HLA-A*01:01 (setting [2]); 14400 nM in the test with HLA-A*26:01 (setting [2]); 289 nM with HLA-A*29:02 (setting [2]); 11300 nM in the test with HLA-A*30:01 (setting [2]); 3750 nM with HLA-A*30:02 (setting [2]); at least 77800 nM in the test with HLA-A*32:01 (setting [2]).
Turning to EDAMPGVLSY, the dissociation constant Kd with HLA-A*01:01 (setting [3]) was 10600 nM; in the test with HLA-A*23:01 (setting [3]), 16400 nM; in the test with HLA-A*24:02 (setting [3]), at least 46400 nM; in the test with HLA-A*26:01 (setting [3]), 1810 nM; with HLA-A*29:02 (setting [3]) it was 11100 nM; with HLA-A*30:01 (setting [3]), at least 70400 nM. Also, the Kd is 15500 nM with HLA-A*30:02 (setting [3]) and at least 69900 nM with HLA-A*32:01 (setting [3]).
In the case of EIAKYGHSF, the Kd in the test with HLA-B*15:01 (setting [4]) was 57.6 nM.
On the same count and under the same terms, in the case of FAISYCRAF it was 76.1 nM.
As for FPQSNAPIM, the Kd with HLA-B*07:02 (setting [5]) amounted to 12.1 nM; with HLA-B*35:01 (setting [5]), 13600 nM; with HLA-B*51:01, 632 nM; in the test with HLA-B*53:01 (setting [5]), 1.8 nM.
In the case of GLLPSLLLLG, the Kd was 120 nM with HLA-A*02:01 (setting [6]); 261 nM in the test with HLA-A*02:02 (setting [6]); 137 nM in the test with HLA-A*02:03 (setting [6]); 127 nM with HLA-A*02:06 (setting [6]); 3750 nM with HLA-A*68:02 (setting [6]).
Turning to ISKIPGGAMY, the Kd in the test with HLA-A*01:01 (setting [7]) is at least 23800 nM; in the test with HLA-A*30:02 (setting [7]), 9.35 nM; with HLA-B*15:01 (setting [7]), 136 nM.
With KLFMALVAF, the figures for the Kd with HLA-A*23:01 (setting [5]), in the test with HLA-A*32:01 (setting [5]) and with HLA-B*15:01 (setting [5]) were 4740 nM, 37.8 nM and 198 nM, respectively.
KLSGLGFNAV: the Kd in the test with HLA-A*02:01 (setting [8]) came out at 19.3 nM; with HLA-A*02:02 (setting [8]) it was 5.4 nM; with HLA-A*02:03 (setting [8]), 2.8 nM; with HLA-A*02:06 (setting [8]) it was 24.5 nM; with HLA-A*68:02 (setting [8]), 6110 nM.
As for KQERGKSLLF, in the test with HLA-B*15:01 (setting [9]), the Kd came to 118 nM.
Turning to KTGESSRCY, the dissociation constant (Kd) with HLA-A*01:01 (setting [2]) is 7280 nM; in the test with HLA-A*26:01 (setting [2]) it was at least 77900 nM; with HLA-A*29:02 (setting [2]), 4380 nM; in the test with HLA-A*30:01 (setting [2]), 3520 nM; in the test with HLA-A*30:02 (setting [2]), 101 nM; in the test with HLA-A*32:01 (setting [2]), at least 77800 nM.
As to LAMTDTTPF, the Kd with HLA-B*15:01 (setting [1]) came out at 3.92 nM; with HLA-B*35:01 (setting [1]) it was 1.67 nM; with HLA-B*53:01 (setting [1]), 94.3 nM.
As for LLFILFYFA, the dissociation constant (Kd) in the test with HLA-B*15:01 (setting [4]) turned out to be 242 nM.
With LPEYGTLGL, the dissociation constant (Kd) with HLA-B*07:02 (setting [7]) was 40.1 nM; in the test with HLA-B*53:01 (setting [7]), 545 nM.
On to LQIFSNSVG, for which, in the test with HLA-B*15:01 (setting [4]), the Kd was found to be 2.07 nM.
As for LSRNSTHEM, the Kd in the test with HLA-A*30:01 (setting [7]) worked out at 106 nM; with HLA-B*15:01 (setting [7]), 39.7 nM.
As to LTYFCFVAL, the Kd in the test with HLA-A*32:01 (setting [4]) is 615 nM; with HLA-B*15:01 (setting [4]), 28.5 nM.
Take LVKRFSTGLF: the equilibrium dissociation constant (Kd) in the test with HLA-B*15:01 (setting [1]) amounted to 256 nM.
Regarding MLRVYNNTA, the dissociation constant Kd in the test with HLA-B*15:01 (setting [4]) came to 188 nM.
Consider MMCYFLTATP, for which, in the test with HLA-A*02:01 (setting [4]), the Kd was determined as 18 nM.
As to MMLKLLTDF, the dissociation constant Kd worked out at 357 nM with HLA-A*23:01 (setting [10]), 56.7 nM with HLA-A*32:01 (setting [10]) and 11.5 nM with HLA-B*15:01 (setting [10]).
Turning to MSIVCIVAA, the Kd with HLA-B*15:01 (setting [4]) was 3070 nM.
Take QAVNNLVEL: the Kd in the test with HLA-A*02:01 (source organism: Lassa virus Josiah) is 4570 nM.
On to QPATLRKYCI, for which the Kd with HLA-B*07:02 (setting [5]) is 660 nM; with HLA-B*51:01, at least 26100 nM.
On to RARNRVSTV, for which the dissociation constant (Kd) with HLA-A*30:01 (setting [10]) came to 23 nM; with HLA-B*07:02 (setting [10]) it was 2.62 nM; with HLA-B*08:01 it was 9.01 nM.
Take SLFIESSICL: the Kd in the test with HLA-A*02:01 (setting [4]) was found to be 2 nM; in the test with HLA-A*02:02 (setting [4]), 99.2 nM; with HLA-A*02:03 (setting [4]), 293 nM; in the test with HLA-A*02:06 (setting [4]) it was 982 nM.
Take SMRKTDWLPM: the equilibrium dissociation constant (Kd) with HLA-B*15:01 (setting [7]) was 134 nM.
Consider TADDITMGY, for which the Kd with HLA-A*01:01 (setting [11]) is 18.8 nM; in the test with HLA-A*26:01 (setting [11]), 4700 nM; with HLA-A*29:02 (setting [11]), 11300 nM; with HLA-A*30:01 (setting [11]), at least 78100 nM; with HLA-A*30:02 (setting [11]) it was 9930 nM; with HLA-A*32:01 (setting [11]), at least 77800 nM.
With TPEGIIPTLF, the Kd with HLA-B*07:02 (setting [1]) was 920 nM; with HLA-B*35:01 (setting [1]), 93.5 nM; in the test with HLA-B*53:01 (setting [1]) it was 38.1 nM.
In the case of TPKAKRGTAQ, the Kd in the test with HLA-B*07:02 (source organism: Dengue virus 1 Singapore/S275/1990) came out at 1410 nM.
For TPTGTVMDII, the Kd in the test with HLA-B*07:02 (setting [7]) was 219 nM.
As for TVAAMGVPPL, the dissociation constant Kd in the test with HLA-A*26:01 (setting [12]) is 12200 nM; with HLA-A*30:01 (setting [12]), 3210 nM; with HLA-A*68:02 (setting [12]), 19.8 nM.
For VLTGGVTLFF, the Kd with HLA-A*24:02 (setting [9]) is 1610 nM; in the test with HLA-B*15:01 (setting [9]), 194 nM.
Turning to VMTKWCAPF, the Kd with HLA-B*15:01 (setting [4]) worked out at 1.86 nM.
